Publication PMC6765261 (Proceedings of the National Academy of Sciences of the …, 2019)

Biological target: the molecule itself
Assay: cryo-EM structure

Row | Protein | binding result
1 | CCT2 subunit of yeast TRiC/CCT (natural protein, Saccharomyces cerevisiae, UniProt P39076 1-527, looked up) MSVQIFGDQVTEERAENARLSAFVGAIAVGDLVKSTLGPKGMDKLLQSASSNTCMVTNDGATILKSIPLDNPAAKVLVNISKVQDDEVGDGTTSVTVLSAELLREAEKLIDQSKIHPQTIIEGYRLASAAALDALTKAAVDNSHDKTMFREDLIHIAKTTLSSKILSQDKDHFAELATNAILRLKGSTNLEHIQIIKILGGKLSDSFLDEGFILAKKFGNNQPKRIENAKILIANTTLDTDKVKIFGTKFKVDSTAKLAQLEKAEREKMKNKIAKISKFGINTFINRQLIYDYPEQLFTDLGINSIEHADFEGVERLALVTGGEVVSTFDEPSKCKLGECDVIEEIMLGEQPFLKFSGCKAGEACTIVLRGATDQTLDEAERSLHDALSVLSQTTKETRTVLGGGCAEMVMSKAVDTEAQNIDGKKSLAVEAFARALRQLPTILADNAGFDSSELVSKLRSSIYNGISTSGLDLNNGTIADMRQLGIVESYKLKRAVVSSASEAAEVLLRVDNIIRARPRTANRQHM | binds
2 | CCT6 subunit of yeast TRiC/CCT (natural protein) not shown | binds
